Measured values published in US20130309172.

Legend:
[1] = test system: AuNP-PVGLIGC-PEG (cleavable)
[2] = target: AuNP-GIVGPLC-PEG (noncleavable negative control)
[3] = target: AuNP-PVGLIGC-PEG (cleavable); remark: listed apart in the source

Molecule	cleavage of the peptide coating of the AuNP conjugate (UV-vis) [1]	cleavage of the peptide coating of the AuNP conjugate (DLS, zeta potential, UV-vis, TEM, FFF) [2]	cleavage of the peptide coating of the AuNP conjugate (DLS, zeta potential, UV-vis, TEM, FFF) [3]
trypsin	Cleavable AuNPs treated with trypsin did not exhibit cleavage	–	–
human matrix metalloproteinase (MMP-2) (protein) YNFFPRKPKWDKNQITYRIIGYTPDLDPETVDDAFARAFQVWSDVTPLRFSRIHDGEADIMINFGRWEHGDGYPFDGKDGLLAHAFAPGTGVGGDSHFDDDELWTLGEGQVVRVKYGNADGEYCKFPFLFNGKEYNSCTDTGRSDGFLWCSTTYNFEKDGKYGFCPHEALFTMGGNAEGQPCKFPFRFQGTSYDSCTTEGRTDGYRWCGTTEDYDRDKKYGFCPETAMSTVGGNSEGAPCVFPFTFLGNKYESCTSAGRSDGKMWCATTANYDDDRKWGFCPDQGYSLFLVAAHEFGHAMGLEHSQDPGALMAPIYTYTKNFRLSQDDIKGIQELYGASPDIDLGTGPTPTLGPVTPEICKQDIVFDGIAQIRGEIFFFKDRFIWRTVTPRDKPMGPLLVATFWPELPEKIDAVYEAPQEEKAVFFAGNEYWIYSASTLERGYPKPLTSLGLPPDVQRVDAAFNWSKNKKTYIFAGDKFWRYNEVKKKMDPGFPKLIADAWNAIPDNLDAVVDLQGGGHSYFFKGAYYLKLENQSLKSVKFGSIKSDWLGC	–	Non-cleavable control and blocker control AuNPs exhibited no cleavage	cleavable AuNPs were converted to denuded AuNPs following exposure to MMP-2
